B1: PR5 promoter HSE probe (dsDNA)
DNA 1: GGAACTGATTCCCTAAAACAGAAAAGAATGTATGAACCTTCCTAAAATAC
DNA 2: GTATTTTAGGAAGGTTCATACATTCTTTTCTGTTTTAGGGAATCAGTTCC
B2: PR2 promoter HSE probe (dsDNA)
DNA 1: CATCTCAATATCAATATTTAAGAACTTTCTAATAAAATCATCCTTATCCGG
DNA 2: CCGGATAAGGATGATTTTATTAGAAAGTTCTTAAATATTGATATTGAGATG
B3: PR1 promoter HSE probe (dsDNA)
DNA 1: GGCCCGCATGAGTTACAACAAGAAGAAATTTCAAATATTGCTCTCCGTGG
DNA 2: CCACGGAGAGCAATATTTGAAATTTCTTCTTGTTGTAACTCATGCGGGCC

molecular target: VvHSP24 (class B HSP/HSF, AtHSFB1 ortholog) (Vitis vinifera, UniProt A0ACM8QKQ1 1-286); assay: EMSA; LightShift chemiluminescent EMSA kit (Pierce); buffer, salt, pH and temperature not stated; 200-fold mutant competitor; conditions: protein: recombinant; tags: His (pCzn1); label: 5' biotin
Sequence (A0ACM8QKQ1 entry or part of it): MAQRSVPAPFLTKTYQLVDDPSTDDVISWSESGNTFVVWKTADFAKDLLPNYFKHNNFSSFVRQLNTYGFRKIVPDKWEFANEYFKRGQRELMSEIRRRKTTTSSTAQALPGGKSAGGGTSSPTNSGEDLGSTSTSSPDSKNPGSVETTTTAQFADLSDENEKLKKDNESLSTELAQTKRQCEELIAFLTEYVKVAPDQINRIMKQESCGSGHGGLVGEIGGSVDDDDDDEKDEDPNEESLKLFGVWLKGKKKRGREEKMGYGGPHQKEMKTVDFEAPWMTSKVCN

Binding result, no binding:
B1
B2
B3

From PMC7984168, “Heat Shock Protein HSP24 Is Involved in the BABA-Induced Resistance to Fungal Pathogen in Postharvest Grapes Underlying an NPR1-Dependent Manner”
